We go through 61 sequences from publication PMC4234207.

The target in this series is T1, GST-FKH-FoxA2 (Rattus norvegicus (rat; cloned from genomic DNA)) (UniProt P32182).
T1 sequence (P32182 145-290, looked up): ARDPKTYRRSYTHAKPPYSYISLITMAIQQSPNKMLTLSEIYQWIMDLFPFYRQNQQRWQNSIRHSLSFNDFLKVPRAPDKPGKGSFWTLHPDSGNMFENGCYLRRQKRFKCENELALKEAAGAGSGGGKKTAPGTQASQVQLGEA
Kind of series: competition EMSA. Conditions: 25 mM HEPES pH 7.6, 150 mM KCl, 0.2 mM EDTA, 0.2 mM EGTA, 10% glycerol, 1 mM DTT, 3 ug protein, 1 ng 32P-TTR probe, 2/5/20 ng competitor, on ice 15 min; 4% ….
“CAGTAAACTCTGCTGTGTGTACAGATAACATTAC (double strand) [non-site chr7:119551431]” yielded a binding signal (EMSA score (TTR=1)) of 0.22. The value for “CAGTAAGCCTCGCGTTGTTTGGTTAAGGGGCAGG (double strand) [FoxA BS chr1:7078701]” was 0.83; that for “CAGTAAGGTTATTATTATTTGTTTTATTTTGTTT (double strand) [FoxA BS chr10:75378448]” was 0.83. As for “CAGTACCCCAGGATTTGTGGGCTGTGGGTGTGGC (double strand) [non-site chr7:44970992]”, the figure is -0.11. As for “CAGTACTAGATGTTTACTTTAAGGGACCAG (double strand) [FoxA BS chr9:107745824]”, the figure is 1.3; as for “CAGTACTCATCCTGCTATTGACAGTCGGATATAT (double strand) [FoxA BS chr7:29476412]”, 0.4. Turning to “CAGTAGAGGTCTTCCTCTTTGCCCATGTTGTGGG (double strand) [non-site chr7:26648074]”, the binding signal (EMSA score (TTR=1)) is -0.16.

Sequence “CAGTAGCCCCTCCTGTGTTGTCTTCCAGTAGATG (double strand) [non-site chr7:59095749]” yielded a binding signal (EMSA score (TTR=1)) of 0.09. As for “CAGTAGCGCCTGCAGTTTACCTTGGCTCCG (double strand) [non-site chr9:102865800]”, the figure is 0.13. In the case of “CAGTAGGGTCAAGGTAGTTTGCATATCTTCCAAC (double strand) [non-site chr7:83767529]”, the binding signal (EMSA score (TTR=1)) was found to be 0.24. “CAGTAGGTTTCTCTATTGACTCTATTGCCT (double strand) [FoxA BS chr11:45798706]” registered a binding signal (EMSA score (TTR=1)) of 0.49. In turn, “CAGTATGTGTTGTTGTTGACTTTAAGGTCG (double strand) [FoxA BS chr9:107420590]” had a binding signal (EMSA score (TTR=1)) of 0.93. “CAGTATTGGACATTGTTTATTTGTTTTGCC (double strand) [FoxA BS chr1:141375708]” gave a binding signal (EMSA score (TTR=1)) of 1.21.

“CAGTATTTATTTGTATGTATTTTGAGACAG (double strand) [FoxA BS chr3:116606401]” had a binding signal (EMSA score (TTR=1)) of 0.38.

As to “CAGTCACCGTTGTTTGTTCTGTGACAAATA (double strand) [FoxA BS chr19:56926814]”, the binding signal (EMSA score (TTR=1)) was found to be 0.68. As for “CAGTCAGCTCCCATGTTTACCAGGCCTTGA (double strand) [FoxA BS chr6:121311851]”, the figure is 0.57; as for “CAGTCAGTGGAAGGCTGTTAACTGTGCCTGCTGC (double strand) [non-site chr13:40870570]”, -0.02. For the sequence “CAGTCATATAGGCTCTGTTTGAACATTAATTAAC (double strand) [FoxA BS chr15:82621996 b]”, the binding signal (EMSA score (TTR=1)) was determined as 0.31. Regarding “CAGTCCAGACTCGCTTGTTGACAGAGCTCAGGGC (double strand) [FoxA BS chr12:77880754 a]”, the binding signal (EMSA score (TTR=1)) was determined as 0.38.

In turn, “CAGTCCAGGGGACCTGTTTACCTTACATAG (double strand) [FoxA BS chr17:45901267]” displayed a binding signal (EMSA score (TTR=1)) of 0.7. The value for “CAGTCCCGGGCCTGTTTGCTTTTCCATACA (double strand) [FoxA BS chr12:8003233]” was 0.5. As for “CAGTCCCTATCTGTGTTTACAGCTGGTTTC (double strand) [non-site chr5:139643316]”, the figure is 0.18; as for “CAGTCCCTTCCCTTATTTACATTCCCGAGA (double strand) [FoxA BS chr7:140707466 a]”, 1.13. As for “CAGTCCGGGATTGGCTGTTTGTAATCTGCTCGAC (double strand) [non-site chr17:74394072]”, the figure is 0; as for “CAGTCCTGGCTTTCCTGCTTACCCAACAACCGCT (double strand) [non-site chr3:94456673 b]”, 0.07; as for “CAGTCCTTGTGCTTATTTACATACCCCGCC (double strand) [FoxA BS chr19:12527263]”, 0.84.

Sequence “CAGTCGTCTTCCCTGTGTGCTTACTATGCA (double strand) [non-site chr12:85340663 b]” showed a binding signal (EMSA score (TTR=1)) of 0.07. The value for “CAGTCGTGACCTTTGTTGACTCGCGTCAGT (double strand) [FoxA BS chrX:17319260]” was 0.53. The value for “CAGTCTCCCGGCCGGGGTTGACTCTCTCTGAGCT (double strand) [non-site chr8:87127281]” was 0.11; that for “CAGTCTCCTCCATTGTGTACACTCCCCCTC (double strand) [FoxA BS chr7:44717527]” was 0.49; that for “CAGTCTCTGAGTGACTGTTTTCTGTAATACCCAA (double strand) [non-site chr15:91019750]” was 0.01.

Consider “CAGTCTCTGCCCCTCTATTGGTCTAGCTCTCCAA (double strand) [non-site chr16:22806861]”, for which the binding signal (EMSA score (TTR=1)) came to 0.06.

Regarding “CAGTCTGAGAAACCTTGTTGATCTCAGGCAACCC (double strand) [non-site chr8:13025407 a]”, the binding signal (EMSA score (TTR=1)) came out at 0.07. Consider “CAGTCTGCCCTGCTGTTTACCAGCTGGAGA (double strand) [FoxA BS chr3:94456673 a]”, for which the binding signal (EMSA score (TTR=1)) amounted to 0.29. The value for “CAGTCTGCGGCGCCAGATTTACACAGCGCGAGGA (double strand) [FoxA BS chr7:15773405]” was 0.25; that for “CAGTCTTGAGGCCTGTTTACCGTCCAGTTA (double strand) [FoxA BS chr19:44039737]” was 0.43. The value for “CAGTGACAACCAATGTTGACTTAAAACCTT (double strand) [FoxA BS chr4:61847631]” was 0.82; that for “CAGTGAGGCGGGGTGTTGACTCTTACGCCA (double strand) [FoxA BS chr8:112454327]” was 0.33. As for “CAGTGCAACAAGTTGTTTACACTCTTCATT (double strand) [FoxA BS chr6:34792983 a]”, the figure is 0.82; as for “CAGTGCGGCGCTGTGTTTACCTTCCGGGAG (double strand) [FoxA BS chr11:85168610]”, 1.08.

For “CAGTGCGTGCATTGGTGTTCGCTCAGAGCGGGAC (double strand) [non-site chr6:5446118]”, the binding signal (EMSA score (TTR=1)) was 0. The value for “CAGTGCTAGATCCAGTTTTTACACAGAAAGTTTC (double strand) [non-site chr8:13025407 b]” was -0.06.

Sequence “CAGTGGAACCTCTGATGTTGACTTTCCCTTGATT (double strand) [FoxA BS chr15:82621996 a]” showed a binding signal (EMSA score (TTR=1)) of 0.38. “CAGTGGACCTTATTTACTTTCCTTAGCAAG (double strand) [FoxA BS chr12:85340663 a]”: the binding signal (EMSA score (TTR=1)) was found to be 0.99. As for “CAGTGGATGCCTCTATTTGTTTAATCACAG (double strand) [FoxA BS chr9:122199103]”, the figure is 1.1.

Turning to “CAGTGGCATCCGACTGATTTACTGAGCTGGTTCC (double strand) [non-site chr7:140707466 b]”, the binding signal (EMSA score (TTR=1)) amounted to 0.

“CAGTGGGACCTGTCTTGTTGACCCATCACGTCAC (double strand) [FoxA BS chr17:32151628]” returned a binding signal (EMSA score (TTR=1)) of 0.47.

Consider “CAGTGGTCACCCTTTGGTTTACCTTTTAGGAACA (double strand) [FoxA BS chr8:96902217 a]”, for which the binding signal (EMSA score (TTR=1)) was determined as 0.52. The value for “CAGTGTGAGTGTGTGTGTGTATACAGCGTGAGTC (double strand) [FoxA BS chr15:59478046]” was 0.26. As for “CAGTGTGTTCCTATGTGTACACAGTACTTG (double strand) [FoxA BS chr4:3604382]”, the figure is 0.91. Take “CAGTGTTCAGAGCTGTTTACTTGAACGCGA (double strand) [FoxA BS chr6:34792983 b]”: the binding signal (EMSA score (TTR=1)) was found to be 0.53.

As for “CAGTGTTGCCCGTCGTATTTGTATATGGTTTCCT (double strand) [FoxA BS chr10:79387812]”, the binding signal (EMSA score (TTR=1)) came to 0.58. “CAGTTATCAATGTTTGTTTACCTTGTGGCT (double strand) [FoxA BS chrX:6878436]” registered a binding signal (EMSA score (TTR=1)) of 1.65. As for “CAGTTATCTGTACTTTATTTTCAAACGCTATAAT (double strand) [non-site chr8:96902217 b]”, the figure is -0.01. Turning to “CAGTTCACCTGAGGGTGTGTACACAGTCTCTCAG (double strand) [FoxA BS chr7:100410756]”, the binding signal (EMSA score (TTR=1)) was determined as 0.56. Take “CAGTTCATGCCACAGTTTACTCTGGTCCCT (double strand) [non-site chr1:154160175]”: the binding signal (EMSA score (TTR=1)) is 0.24. For “CAGTTGCCTTTCTGTTTGTTGTTTTGGAGG (double strand) [non-site chr5:30822343]”, the binding signal (EMSA score (TTR=1)) came to 0.21. The value for “CAGTTGCGCCCCGGGTGTTGGCAGCGAGAAGTGG (double strand) [non-site chr12:77880754 b]” was 0.03. The value for “CAGTTGCTGGCCTAATGTGGACACAGGGGGTTCC (double strand) [FoxA BS chr3:83135377]” was 0.64. As for “CAGTTGGAGTAGTTATTTACCTTAGCAGCC (double strand) [FoxA BS chr16:13816438]”, the figure is 0.81.

“CAGTTGGCCCCAGTATTTACATTTCTAACA (double strand) [FoxA BS chr15:54962925]”: the binding signal (EMSA score (TTR=1)) turned out to be 0.92.
